This is an account of results in patent US20240425546A1 (NANTONG YICHEN BIOPHARMA, published 2024).

The target of assay [1] is T1, WT hIL-1β (human, UniProt P01584 117-269).
T1 construct: Expressed in E. coli from pET28a, purified on Ni-NTA and detected with anti-His-tag antibody; also called WT IL-1β; wild-type hIL-1β
In words: competitive ELISA on coated WT hIL-1β; canakinumab diluted in series, competitor E64AK-F4-mFc (100 nM). Background: In an ELISA, binding on a coated surface is turned into a signal by an enzyme label.

In assay [2] the target is T1, WT hIL-1β. The assay can be described thus: cell-based or functional assay.
A further assay addresses T2, E64AK-F4-mFc (mouse, UniProt P01863 123-330 = IgG part).
T2 construct: scFv fused to the Fc of mouse IgG2a by a linker; also called E64AK-F4-mFc fusion antibody
The assay can be described thus: ELISA, antigen coated.

T2 sequence (VL, as listed by the source limits assumed, chain 1 of 3): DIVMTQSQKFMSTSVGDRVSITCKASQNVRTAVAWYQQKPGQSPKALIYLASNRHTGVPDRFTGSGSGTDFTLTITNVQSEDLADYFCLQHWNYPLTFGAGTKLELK
T2 sequence (VH, as listed by the source limits assumed, chain 2 of 3): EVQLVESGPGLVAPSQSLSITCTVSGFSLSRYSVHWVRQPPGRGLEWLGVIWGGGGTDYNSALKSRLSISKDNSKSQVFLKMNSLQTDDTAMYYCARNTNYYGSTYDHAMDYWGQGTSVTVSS
T2 sequence (P01863 other isoform, or with tags, fused parts or gaps limits assumed, chain 3 of 3): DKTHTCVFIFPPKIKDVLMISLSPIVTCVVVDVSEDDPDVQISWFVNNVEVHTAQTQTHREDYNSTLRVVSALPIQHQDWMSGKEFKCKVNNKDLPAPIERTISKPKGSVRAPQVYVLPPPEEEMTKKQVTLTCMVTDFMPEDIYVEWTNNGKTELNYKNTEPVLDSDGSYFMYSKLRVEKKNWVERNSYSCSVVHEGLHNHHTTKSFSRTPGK

B1: Canakinumab (antibody, V domains shown)
VH: QVQLVESGGGVVQPGRSLRLSCAASGFTFSVYGMNWVRQAPGKGLEWVAIIWYDGDNQYYADSVKGRFTISRDNSKNTLYLQMNGLRAEDTAVYYCARDLRTGPFDYWGQGTLVTVSS
VL: EIVLTQSPDFQSVTPKEKVTITCRASQSIGSSLHWYQQKPDQSPKLLIKYASQSFSGVPSRFSGSGSGTDFTLTINSLEAEDAAAYYCHQSSSLPFTFGPGTKVDIKR
By IC50 is commonly meant the concentration needed to halve the response being measured. Read a high IC50 as weaker potency. Take B1: the IC50 with WT hIL-1β [1] came to 2.1 nM. In addition, the “inhibition of IL-1β-induced activation of HEK-Blue IL-1R cells (SEAP), IC50” value with WT hIL-1β [2] is 4.7 nM.

B2: hIL-1β63-66A (ligand)
chain: APVRSLNCTLRDSQQKSLVMSGPYELKALHLQGQDMEQQVVFSMSFVQGEESNDKIPVALGLAAAALYLSCVLKDDKPTLQLESVDPKNYPKKKMEKRFVFNKIEINNKLEFESAQFPNWYISTSQAENMPVFLGGTKGGQDITDFTMQFVSS
notes: also called IL-1β mutant containing four alanine mutations; hIL-1βE63-66A
B2: the binding result with E64AK-F4-mFc is given as “no binding”.
